Data as given in patent publication US10613105.

Target: TLR2/6 receptor expressed on NIH 3T3 TLR2/6 receptor cells (whole-cell sensor elements, printed or pipetted)
Assay: fluorescence of rhodamine-labeled pyrogen bound to printed or pipetted receptor cells on a membrane, against the control cell line and membrane; after drying, ethanol fixing or storage at 4° C.

Substance: Pam3CSK4 with rhodamine labeling (peptide)
- delta of the fluorescence intensity: > 3000 a.u.
